Measurements published in US20240247043A1 (WUHAN YZY BIOPHARMA, published 2024).
Each block holds one binder with its values, some of them ahead of it.

B6: human FGL1-His antigen (ACRO, FG1-H52Hy) (ligand, UniProt Q08830 23-312, looked up)
chain: LEDCAQEQMRLRAQVRLLETRVKQQQVKIKQLLQENEVQFLDKGDENTVIDLGSKRQYADCSEIFNDGYKLSGFYKIKPLQSPAEFSVYCDMSDGGGWTVIQRRSDGSENFNRGWKDYENGFGNFVQKHGEYWLGNKNLHFLTTQEDYTLKIDLADFEKNSRYAQYKNFKVGDEKNFYELNIGEYSGTAGDSLAGNFHPEVQWWASHQRMKFSTWDRDHDNYEGNCAEEDQSGWWFNRCHSANLNGVYYSGPYTAKTDNGIVWYTWHGWWYSLKSVVMKIRPNDFIPNVI
notes: Bought His-tagged protein; also called hFGL1; hFGL1 antigen

Experiments:
[1] = target: B6; experiment: ELISA, same method as in Example 3: construct coated, serially diluted human FGL1 added, OD450
[2] = target: T1, LAG-3 D1-D2-D3-Fc mutant E201D (UniProt P18627 23-352); experiment: procedures of Examples 2-4 repeated; method not told here
T1 construct: domain: D1-D2-D3; also called LAG-3 D1-D2-D3-Linker-Fc E201D

[3] = target: T2, LAG-3 D1-D2-D3-Fc mutant E201G (UniProt P18627 23-352); experiment: as above
T2 construct: domain: D1-D2-D3; also called LAG-3 D1-D2-D3-Linker-Fc E201G

[4] = target: T3, LAG-3 D1-D2-D3-Fc mutant P207I (UniProt P18627 23-352); experiment: as above
T3 construct: domain: D1-D2-D3; also called LAG-3 D1-D2-D3-Linker-Fc P207I

[5] = target: T4, LAG-3 D1-D2-D3-Fc mutant M212A (UniProt P18627 23-352); experiment: as above
T4 construct: domain: D1-D2-D3; also called LAG-3 D1-D2-D3-Linker-Fc M212A

[6] = target: T5, Y103-4A (LAG3 D1-D2-D3-D4-Fab, anti-PD-L1 Fab) (human); experiment: Biacore SPR, antigen amine-coupled on CM5 chip, 1:1 fit
T5 construct: Dimer of LAG-3-Linker3-VL-CL and LAG-3-Linker3-VH-CH1; the Fab is specific for PD-L1

[7] = target: T6, Y103-7A (LAG3 D1-D2-Fab, anti-PD-L1 Fab) (human); experiment: as above
T6 construct: Dimer of LAG-3-Linker3-VL-CL and LAG-3-Linker3-VH-CH1; the Fab is specific for PD-L1

- binding result [1]: binds
B3: LAG-3 D1-D2-LZ mutant WS331-LZ (P195A) (other)
chain 1: LQPGAEVPVVWAQEGAPAQLPCSPTIPLQDLSLLRRAGVTWQHQPDSGPPAAAPGHPLAPGPHPAAPSSWGPRPRRYTVLSVGPGGLRSGRLPLQPRVQLDERGRQRGDFSLWLRPARRADAGEYRAAVHLRDRALSCRLRLRLGQASMTASPPGSLRASDWVILNCSFSRPDRPASVHWFRNRGQGRVPVRESAHHHLAESFLFLPQVSPMDSGPWGCILTYRDGFNVSIMYNLTVLGGGGGSGGGGSEPKSSDKTHTCPPCPRIARLEEKVKTLKAQNSELASTANMLREQVAQLKQKVMNHHHHHH
chain 2: LQPGAEVPVVWAQEGAPAQLPCSPTIPLQDLSLLRRAGVTWQHQPDSGPPAAAPGHPLAPGPHPAAPSSWGPRPRRYTVLSVGPGGLRSGRLPLQPRVQLDERGRQRGDFSLWLRPARRADAGEYRAAVHLRDRALSCRLRLRLGQASMTASPPGSLRASDWVILNCSFSRPDRPASVHWFRNRGQGRVPVRESAHHHLAESFLFLPQVSPMDSGPWGCILTYRDGFNVSIMYNLTVLGGGGGSGGGGSEPKSSDKTHTCPPCPLTDTLQAETDQLEDEKSALQTEIANLLKEKEKLEFILAAHHHHHH
notes: Leucine zipper dimer; D2 entry already carries P195A; copies: 1 + 1

- binding result [1]: binds
B4: LAG-3 D1-D2-LZ mutant WS323-LZ (N183A) (other)
chain 1: LQPGAEVPVVWAQEGAPAQLPCSPTIPLQDLSLLRRAGVTWQHQPDSGPPAAAPGHPLAPGPHPAAPSSWGPRPRRYTVLSVGPGGLRSGRLPLQPRVQLDERGRQRGDFSLWLRPARRADAGEYRAAVHLRDRALSCRLRLRLGQASMTASPPGSLRASDWVILNCSFSRPDRPASVHWFRARGQGRVPVRESPHHHLAESFLFLPQVSPMDSGPWGCILTYRDGFNVSIMYNLTVLGGGGGSGGGGSEPKSSDKTHTCPPCPRIARLEEKVKTLKAQNSELASTANMLREQVAQLKQKVMNHHHHHH
chain 2: LQPGAEVPVVWAQEGAPAQLPCSPTIPLQDLSLLRRAGVTWQHQPDSGPPAAAPGHPLAPGPHPAAPSSWGPRPRRYTVLSVGPGGLRSGRLPLQPRVQLDERGRQRGDFSLWLRPARRADAGEYRAAVHLRDRALSCRLRLRLGQASMTASPPGSLRASDWVILNCSFSRPDRPASVHWFRARGQGRVPVRESPHHHLAESFLFLPQVSPMDSGPWGCILTYRDGFNVSIMYNLTVLGGGGGSGGGGSEPKSSDKTHTCPPCPLTDTLQAETDQLEDEKSALQTEIANLLKEKEKLEFILAAHHHHHH
notes: Leucine zipper dimer; D2 entry already carries N183A; copies: 1 + 1

- binding result [1]: binds
B5: LAG-3 D1-D2-LZ mutant WS451-LZ (E201G) (other)
chain 1: LQPGAEVPVVWAQEGAPAQLPCSPTIPLQDLSLLRRAGVTWQHQPDSGPPAAAPGHPLAPGPHPAAPSSWGPRPRRYTVLSVGPGGLRSGRLPLQPRVQLDERGRQRGDFSLWLRPARRADAGEYRAAVHLRDRALSCRLRLRLGQASMTASPPGSLRASDWVILNCSFSRPDRPASVHWFRNRGQGRVPVRESPHHHLAGSFLFLPQVSPMDSGPWGCILTYRDGFNVSIMYNLTVLGGGGGSGGGGSEPKSSDKTHTCPPCPRIARLEEKVKTLKAQNSELASTANMLREQVAQLKQKVMNHHHHHH
chain 2: LQPGAEVPVVWAQEGAPAQLPCSPTIPLQDLSLLRRAGVTWQHQPDSGPPAAAPGHPLAPGPHPAAPSSWGPRPRRYTVLSVGPGGLRSGRLPLQPRVQLDERGRQRGDFSLWLRPARRADAGEYRAAVHLRDRALSCRLRLRLGQASMTASPPGSLRASDWVILNCSFSRPDRPASVHWFRNRGQGRVPVRESPHHHLAGSFLFLPQVSPMDSGPWGCILTYRDGFNVSIMYNLTVLGGGGGSGGGGSEPKSSDKTHTCPPCPLTDTLQAETDQLEDEKSALQTEIANLLKEKEKLEFILAAHHHHHH
notes: Leucine zipper dimer; D2 entry already carries E201G; copies: 1 + 1

The remaining lines, values behind:

B1: LAG-3 D1-D2-LZ wild type W1161-LZ (other)
chain 1: LQPGAEVPVVWAQEGAPAQLPCSPTIPLQDLSLLRRAGVTWQHQPDSGPPAAAPGHPLAPGPHPAAPSSWGPRPRRYTVLSVGPGGLRSGRLPLQPRVQLDERGRQRGDFSLWLRPARRADAGEYRAAVHLRDRALSCRLRLRLGQASMTASPPGSLRASDWVILNCSFSRPDRPASVHWFRNRGQGRVPVRESPHHHLAESFLFLPQVSPMDSGPWGCILTYRDGFNVSIMYNLTVLGGGGGSGGGGSEPKSSDKTHTCPPCPRIARLEEKVKTLKAQNSELASTANMLREQVAQLKQKVMNHHHHHH
chain 2: LQPGAEVPVVWAQEGAPAQLPCSPTIPLQDLSLLRRAGVTWQHQPDSGPPAAAPGHPLAPGPHPAAPSSWGPRPRRYTVLSVGPGGLRSGRLPLQPRVQLDERGRQRGDFSLWLRPARRADAGEYRAAVHLRDRALSCRLRLRLGQASMTASPPGSLRASDWVILNCSFSRPDRPASVHWFRNRGQGRVPVRESPHHHLAESFLFLPQVSPMDSGPWGCILTYRDGFNVSIMYNLTVLGGGGGSGGGGSEPKSSDKTHTCPPCPLTDTLQAETDQLEDEKSALQTEIANLLKEKEKLEFILAAHHHHHH
notes: Leucine zipper dimer of D1-D2-Linker2-c-JUN-His and D1-D2-Linker2-c-FOS-His
- binding result [1]: binds

B2: LAG-3 D1-D2-LZ mutant WS447-LZ (E201D) (other)
chain 1: LQPGAEVPVVWAQEGAPAQLPCSPTIPLQDLSLLRRAGVTWQHQPDSGPPAAAPGHPLAPGPHPAAPSSWGPRPRRYTVLSVGPGGLRSGRLPLQPRVQLDERGRQRGDFSLWLRPARRADAGEYRAAVHLRDRALSCRLRLRLGQASMTASPPGSLRASDWVILNCSFSRPDRPASVHWFRNRGQGRVPVRESPHHHLADSFLFLPQVSPMDSGPWGCILTYRDGFNVSIMYNLTVLGGGGGSGGGGSEPKSSDKTHTCPPCPRIARLEEKVKTLKAQNSELASTANMLREQVAQLKQKVMNHHHHHH
chain 2: LQPGAEVPVVWAQEGAPAQLPCSPTIPLQDLSLLRRAGVTWQHQPDSGPPAAAPGHPLAPGPHPAAPSSWGPRPRRYTVLSVGPGGLRSGRLPLQPRVQLDERGRQRGDFSLWLRPARRADAGEYRAAVHLRDRALSCRLRLRLGQASMTASPPGSLRASDWVILNCSFSRPDRPASVHWFRNRGQGRVPVRESPHHHLADSFLFLPQVSPMDSGPWGCILTYRDGFNVSIMYNLTVLGGGGGSGGGGSEPKSSDKTHTCPPCPLTDTLQAETDQLEDEKSALQTEIANLLKEKEKLEFILAAHHHHHH
notes: Leucine zipper dimer; D2 entry already carries E201D; copies: 1 + 1
- binding result [1]: binds

Binder: B6
- binding result [2]: binds
- binding result [3]: binds
- binding result [4]: binds
- binding result [5]: binds
- Kd [6]: 0.929 nM
- Kd [7]: 2.46 nM
